5 molecules from publication PMC11169341, “Development of DNA aptamers targeting B7H3 by hybrid-SELEX: an alternative to antibodies for immuno-assays” can be followed below.

The data set deals with T1, recombinant human B7-H3 His-tag (R&D 1949-B3-050) (Homo sapiens, UniProt Q5ZPR3-2 29-245).
T1 sequence: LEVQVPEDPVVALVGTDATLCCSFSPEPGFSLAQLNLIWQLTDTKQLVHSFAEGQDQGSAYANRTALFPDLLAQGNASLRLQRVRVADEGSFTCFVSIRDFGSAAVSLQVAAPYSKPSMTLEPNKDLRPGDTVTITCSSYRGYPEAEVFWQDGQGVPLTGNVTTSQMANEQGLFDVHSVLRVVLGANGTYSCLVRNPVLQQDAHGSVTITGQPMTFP
Put plainly: dot blot; FITC aptamer, 10 ng protein on membrane; ABB: AWB (composition not given) + 0.1 mg/ml yeast tRNA, 0.1 mg/ml salmon sperm DNA, 5% FBS, 1 mg/ml BSA; 60 min; 0-500 nM aptamer; flow binding assay on ice, dot-blot temperature and pH not stated. The conditions noted are these: protein: commercial; tags: C-terminal His; label: FITC or biotin.

B1: VRF-HS_B7H3-05 (ssDNA)
DNA: TAGGGAAGAGAAGGACATATGATTGAGAAGTCACGCCACTTACCTGCGCTCAAAACCTCAGAATTGACTAGTACATGACCACTT
Regarding B1, the Kd worked out at 32.7 ± 4.56 nM.

B2: VRF-HS_B7H3-02 (ssDNA)
DNA: TAGGGAAGAGAAGGACATATGATCGCCCCTCTTTTCGATTTCAAGCTCCTAACCCACACCTCTTTGACTAGTACATGACCACTT
For the molecule B2, the Kd turned out to be 24.6 ± 3.69 nM.

B3: VRF-HS_B7H3-01 (ssDNA)
DNA: TAGGGAAGAGAAGGACATATGATACAGCACGGTATGACGAGTCCATTGTGTGTGCAGCTCGCTAATTGACTAGTACATGACCACTT
As for B3, the Kd is 19.2 ± 4.4 nM.

B4: VRF-HS_B7H3-04 (ssDNA)
DNA: TAGGGAAGAGAAGGACATATGATTGCCCCTGACACTTACACGCCACTATCAAGGCACACGCCATTGACTAGTACATGACCACTT
As for B4, the Kd came to 31.5 ± 4.02 nM.

B5: VRF-HS_B7H3-03 (ssDNA)
DNA: TAGGGAAGAGAAGGACATATGATATAAGTGACACATCAATCTCATGCGGATGAACCAGTGCGTTTGACTAGTACATGACCACTT
On to B5, for which the Kd came to 22.7 ± 3.71 nM.

What is called Kd is a measure of binding affinity in units of concentration.
